Results published in patent publication US20040006009A1.

Biological target: MASP (MBL-associated serine proteases) purified from an MBL deficient individual
Experiment: cell-based or functional assay

Substance: recombinant human mannan binding lectin (MBL) (from UniProt P11226 21-248)
- C4-activation compared to the reference N105-11A (EC50 = 100%); PE0407 5 mg/ml with 1 mM CaCl2, T = 2 months at +4° C.: 92%
- C4-activation compared to the reference N105-11A (EC50 = 100%); PE0407 5 mg/ml with 1 mM CaCl2, T = 2 months at +37° C.: 94%
- C4-activation compared to the reference N105-11A (EC50 = 100%); PE0407 5 mg/ml with 1 mM CaCl2, T = 2 months at -20° C.: 91%
- C4-activation compared to the reference N105-11A (EC50 = 100%); control 5 mg/ml without calcium, T = 2 months at 37° C.: 19%
- C4-activation, EC50% relative to a MBL standard; PE0305 10 mg/ml, T = 0 months (% relative to MBL standard): 94
- C4-activation, EC50% relative to a MBL standard; PE0305 10 mg/ml, T = 2½ months at +4° C. (% relative to MBL standard): 78
- C4-activation, EC50% relative to a MBL standard; PE0305 10 mg/ml, T = 2½ months at +37° C. (% relative to MBL standard): 36
- C4-activation, EC50% relative to a MBL standard; PE0305 10 mg/ml, T = 2½ months at -20° C. (% relative to MBL standard): 81
- C4-activation, EC50% relative to a MBL standard; PE0305 10 mg/ml, T = 5 months at +4° C. (% relative to MBL standard): 80.3
- C4-activation, EC50% relative to a MBL standard; PE0305 10 mg/ml, T = 5 months at +37° C. (% relative to MBL standard): 14.3
- C4-activation, EC50% relative to a MBL standard; PE0305 10 mg/ml, T = 5 months at -20° C. (% relative to MBL standard): 81.7
- C4 activation assay, EC50 relative to reference (100%); PE0238 1 mg/ml, 12 months at +4 degree (% of reference): 105
- C4 activation assay, EC50 relative to reference (100%); PE0238 1 mg/ml, 12 months at -20 degree (% of reference): 104
